From patent publication US9708383 (Novo Nordisk, dated 2017)
*1 amine or outer side, *2 acyl side, *3 side chain or, on linkers, in order; H or OH if unused. Where no end group is shown, it is not given here. Side-chain parts run from the residue outwards. [ ]: non-standard residue; d: D form. The star is where a group is joined. Decanoyl(10-(4-HOOC-PhO)) = O=C(O)c1ccc(OCCCCCCCCCC(=O)*)cc1; C16 diacid = O=C(O)CCCCCCCCCCCCCCC(=O)*; γGlu = O=C(O)[C@H](CCC(=O)[*:2])N[*:1]; Desaminohistidyl = O=C(CCc1c[nH]cn1)*; Hexanoyl(6-Ph) = O=C(CCCCCc1ccccc1)*; C12 diacid = O=C(O)CCCCCCCCCCC(=O)*; 13‑carboxytridecanoyl = C14 diacid; 12Ado = NCCCCCCCCCCCC(=O)O; AEEA = NCCOCCOCC(=O)O; Aib = CC(C)(N)C(=O)O; Aoc = NCCCCCCCC(=O)O

Columns and labels:
human GLP-1 receptor [1] = molecular target: T1, human GLP-1 receptor (human, UniProt P43220 24-463); experiment: SPA, 2.0% vs 0.005% HSA
T1 construct: whole, on cells; Used as purified membranes of the transfected hamster cells, not whole cells; also called hGLP-1

human GLP-1 receptor [2] = molecular target: T1, human GLP-1 receptor; experiment: SPA, displacement of 125I-GLP-1(7-36)NH2, 0.005% HSA

Binder	ratio IC50 high HSA/IC50 low HSA (human GLP-1 receptor [1])	IC50 (human GLP-1 receptor [2])
H[Aib]EGTFTSDVSK([AEEA-AEEA-γGlu-Decanoyl(10-(4-HOOC-PhO))])YLEEQAAK([AEEA-AEEA-γGlu-Decanoyl(10-(4-HOOC-PhO))])EFIAWLVRG [GLP-1 derivative of Example 140: [Aib8,Lys18,Glu22,Arg34]-GLP-1-(7-35)-peptide]	> 1	< 1 µM
H[Aib]EGTFTSDVSK([AEEA-γGlu-13‑carboxytridecanoyl])YLEEQAVREFIAK([AEEA-γGlu-13‑carboxytridecanoyl])LVG [GLP-1 derivative of Example 20: [Aib8,Lys18,Glu22,Val25,Arg26,Lys31,Gly34]-GLP-1-(7-34)-peptide]	> 1	< 1 µM
H[Aib]EGTFTSDVSK([AEEA-AEEA-γGlu-C16 diacid])YLEEQAAK([AEEA-AEEA-γGlu-C16 diacid])EFIAWLVRG [GLP-1 derivative of Example 138: [Aib8,Lys18,Glu22,Arg34]-GLP-1-(7-35)-peptide]	> 1	< 1 µM
H[Aib]EGTFTSDVSK([AEEA-AEEA-γGlu-13‑carboxytridecanoyl])YLEGQAAHEFIK([AEEA-AEEA-γGlu-13‑carboxytridecanoyl])WLVRG [GLP-1 derivative of Example 81: [Aib8,Lys18,His26,Lys30,Arg34]-GLP-1-(7-35)-peptide]	> 1	< 1 µM
H[Aib]EGTFTSDVSK([AEEA-AEEA-γGlu-13‑carboxytridecanoyl])YLEEQAAREFIK([AEEA-AEEA-γGlu-13‑carboxytridecanoyl])WLVRG [GLP-1 derivative of Example 83: [Aib8,Lys18,Glu22,Arg26,Lys30,Arg34]-GLP-1-(7-35)-peptide]	> 1	< 1 µM
H[Aib]EGTFTSDVSK([AEEA-AEEA-γGlu-Decanoyl(10-(4-HOOC-PhO))])YLEEQAAK([AEEA-AEEA-γGlu-Decanoyl(10-(4-HOOC-PhO))])EFIAWLVQGRG-NH2 (N-terminus assumed; SMILES CC[C@H](C)[C@H](NC(=O)[C@H](Cc1ccccc1)NC(=O)[C@H](CCC(=O)O)NC(=O)[C@H](CCCCNC(=O)COCCOCCNC(=O)COCCOCCNC(=O)CC[C@H](NC(=O)CCCCCCCCCOc1ccc(C(=O)O)cc1)C(=O)O)NC(=O)[C@H](C)NC(=O)[C@H](C)NC(=O)[C@H](CCC(N)=O)NC(=O)[C@H](CCC(=O)O)NC(=O)[C@H](CCC(=O)O)NC(=O)[C@H](CC(C)C)NC(=O)[C@H](Cc1ccc(O)cc1)NC(=O)[C@H](CCCCNC(=O)COCCOCCNC(=O)COCCOCCNC(=O)CC[C@H](NC(=O)CCCCCCCCCOc1ccc(C(=O)O)cc1)C(=O)O)NC(=O)[C@H](CO)NC(=O)[C@@H](NC(=O)[C@H](CC(=O)O)NC(=O)[C@H](CO)NC(=O)[C@@H](NC(=O)[C@H](Cc1ccccc1)NC(=O)[C@@H](NC(=O)CNC(=O)[C@H](CCC(=O)O)NC(=O)C(C)(C)NC(=O)[C@@H](N)Cc1c[nH]cn1)[C@@H](C)O)[C@@H](C)O)C(C)C)C(=O)N[C@@H](C)C(=O)N[C@@H](Cc1c[nH]c2ccccc12)C(=O)N[C@@H](CC(C)C)C(=O)N[C@H](C(=O)N[C@@H](CCC(N)=O)C(=O)NCC(=O)N[C@@H](CCCNC(=N)N)C(=O)NCC(N)=O)C(C)C, Name prints Lys8, evidently Lys18) [GLP-1 derivative of Example 132: [Aib8,Lys8,Glu22,Gln34]-GLP-1-(7-37)-peptide amide]	> 1	< 1 µM
H[Aib]EGTFTSDVSK([AEEA-AEEA-γGlu-Decanoyl(10-(4-HOOC-PhO))])YLEEQAVREFIAK([AEEA-AEEA-γGlu-Decanoyl(10-(4-HOOC-PhO))])LVG [GLP-1 derivative of Example 19: [Aib8,Lys18,Glu22,Val25,Arg26,Lys31,Gly34]-GLP-1-(7-34)-peptide]	> 1	< 1 µM
H[Aib]EGTFTSDVSK([AEEA-AEEA-γGlu-C12 diacid])YLEEQAVREFIAK([AEEA-AEEA-γGlu-C12 diacid])LVG [GLP-1 derivative of Example 8: [Aib8,Lys18,Glu22,Val25,Arg26,Lys31,Gly34]-GLP-1-(7-34)-peptide]	> 1	< 1 µM
[Desaminohistidyl]AEGTFTSDVSK([AEEA-AEEA-γGlu-Decanoyl(10-(4-HOOC-PhO))])YLEEQAAK([AEEA-AEEA-γGlu-Decanoyl(10-(4-HOOC-PhO))])EFIAWLVQGRG [GLP-1 derivative of Example 136: [Imp7,Lys18,Glu22,Gln34]-GLP-1-(7-37)-peptide]	> 1	< 1 µM
[Desaminohistidyl]AEGTFTSDVSK([AEEA-AEEA-γGlu-C16 diacid])YLEEQAARK([AEEA-AEEA-γGlu-C16 diacid])FIAWLVQGRG [GLP-1 derivative of Example 147: [Imp7,Lys18,Glu22,Arg26,Lys27,Gln34]-GLP-1-(7-37)-peptide]	> 1	< 1 µM
[Desaminohistidyl]AEGTFTSDVSK([AEEA-AEEA-γGlu-Decanoyl(10-(4-HOOC-PhO))])YLEEQAAREFIAWLVRGRK([AEEA-AEEA-γGlu-Decanoyl(10-(4-HOOC-PhO))]) [GLP-1 derivative of Example 4: [Imp7,Lys18,Glu22,Arg26,Arg34,Lys37]-GLP-1-(7-37)-peptide]	> 1	< 1 µM
H[Aib]EGTFTSDVSK([AEEA-AEEA-γGlu-C16 diacid])YLEEQAAK([AEEA-AEEA-γGlu-C16 diacid])EFIAWLVQGRG [GLP-1 derivative of Example 143: [Aib8,Lys18,Glu22,Gln34]-GLP-1-(7-37)-peptide]	> 1	< 1 µM
H[Aib]EGTFTSDVSK([AEEA-AEEA-γGlu-12Ado-γGlu-2‑phenylacetyl])YLEEQAAK([AEEA-AEEA-γGlu-12Ado-γGlu-2‑phenylacetyl])EFIAWLVQGRG [GLP-1 derivative of Example 128: [Aib8,Lys18,Glu22,Gln34]-GLP-1-(7-37)-peptide]	> 1	< 1 µM
[Desaminohistidyl]AEGTFTSDVSK([AEEA-AEEA-γGlu-13‑carboxytridecanoyl])YLEEQAVREFIAK([AEEA-AEEA-γGlu-13‑carboxytridecanoyl])LVG [GLP-1 derivative of Example 12: [Imp7,Lys18,Glu22,Val25,Arg26,Lys31,Gly34]-GLP-1-(7-34)-peptide]	> 1	< 1 µM
H[Aib]EGTFTSDVSK([AEEA-AEEA-γGlu-13‑carboxytridecanoyl])YLEEQAVREFIAK([AEEA-AEEA-γGlu-13‑carboxytridecanoyl])LVG [GLP-1 derivative of Example 5: [Aib8,Lys18,Glu22,Val25,Arg26,Lys31,Gly34]-GLP-1-(7-34)-peptide]	> 1	< 1 µM
H[Aib]EGTFTSDVSK([AEEA-AEEA-γGlu-13‑carboxytridecanoyl])YLEEQAAREFIAK([AEEA-AEEA-γGlu-13‑carboxytridecanoyl])LVG [GLP-1 derivative of Example 16: [Aib8,Lys18,Glu22,Arg26,Lys31,Gly34]-GLP-1-(7-34)-peptide]	> 1	< 1 µM
H[Aib]EGTFTSDVSK([AEEA-AEEA-γGlu-13‑carboxytridecanoyl])YLEEQAVREFIEK([AEEA-AEEA-γGlu-13‑carboxytridecanoyl])LVG [GLP-1 derivative of Example 6: [Aib8,Lys18,Glu22,Val25,Arg26,Glu30,Lys31,Gly34]-GLP-1-(7-34)-peptide]	> 1	< 1 µM
H[Aib]EGTFTSDVSK([AEEA-AEEA-γGlu-13‑carboxytridecanoyl])YLEEQAVRK([AEEA-AEEA-γGlu-13‑carboxytridecanoyl])FIAHLVG	> 1	< 1 µM
H[Aib]EGTFTSDVSK([AEEA-AEEA-γGlu-C12 diacid])YLEEQAVHEFIAK([AEEA-AEEA-γGlu-C12 diacid])LVG [GLP-1 derivative of Example 27: [Aib8,Lys18,Glu22,Val25,His26,Lys31,Gly34]-GLP-1-(7-34)-peptide]	> 1	< 1 µM
H[Aib]EGTFTSDVSK([AEEA-AEEA-γGlu-13‑carboxytridecanoyl])YLEERAVREFIAK([AEEA-AEEA-γGlu-13‑carboxytridecanoyl])LVG	> 1	< 1 µM
H[Aib]EGTFTSDVSK([AEEA-AEEA-γGlu-C12 diacid])YLEEQAVRK([AEEA-AEEA-γGlu-C12 diacid])FIAHLVG	> 1	< 1 µM
H[Aib]EGTFTSDVSK([AEEA-AEEA-γGlu-13‑carboxytridecanoyl])YLEEQAVRHFIAK([AEEA-AEEA-γGlu-13‑carboxytridecanoyl])LVG	> 1	< 1 µM
H[Aib]EGTFTSDVSK([AEEA-AEEA-γGlu-13‑carboxytridecanoyl])YLEEQAVHEFIAK([AEEA-AEEA-γGlu-13‑carboxytridecanoyl])LVG [GLP-1 derivative of Example 7: [Aib8,Lys18,Glu22,Val25,His26,Lys31,Gly34]-GLP-1-(7-34)-peptide]	> 1	< 1 µM
[Desaminohistidyl]AEGTFTSDVSK([AEEA-AEEA-γGlu-C12 diacid])YLEEQAVREFIAK([AEEA-AEEA-γGlu-C12 diacid])LVG [GLP-1 derivative of Example 13: [Imp7,Lys18,Glu22,Val25,Arg26,Lys31,Gly34]-GLP-1-(7-34)-peptide]	> 1	< 1 µM
H[Aib]EGTFTSDVSK([AEEA-AEEA-γGlu-Aoc-γGlu-Hexanoyl(6-Ph)])YLEEQAAK([AEEA-AEEA-γGlu-Aoc-γGlu-Hexanoyl(6-Ph)])EFIAWLVQGRG [GLP-1 derivative of Example 127: [Aib8,Lys18,Glu22,Gln34]-GLP-1-(7-37)-peptide]	> 1	< 1 µM
